Source: patent publication US20250197467A1 (BRIGHT PEAK THERAPEUTICS, published 2025)
Changes are numbered by the printed parent chain.

T1: IL-18 receptor (IL-18Rαβ) on cells (UniProt Q13478 19-541; O95256 20-599, limits assumed)
T1 sequence (looked up) 1: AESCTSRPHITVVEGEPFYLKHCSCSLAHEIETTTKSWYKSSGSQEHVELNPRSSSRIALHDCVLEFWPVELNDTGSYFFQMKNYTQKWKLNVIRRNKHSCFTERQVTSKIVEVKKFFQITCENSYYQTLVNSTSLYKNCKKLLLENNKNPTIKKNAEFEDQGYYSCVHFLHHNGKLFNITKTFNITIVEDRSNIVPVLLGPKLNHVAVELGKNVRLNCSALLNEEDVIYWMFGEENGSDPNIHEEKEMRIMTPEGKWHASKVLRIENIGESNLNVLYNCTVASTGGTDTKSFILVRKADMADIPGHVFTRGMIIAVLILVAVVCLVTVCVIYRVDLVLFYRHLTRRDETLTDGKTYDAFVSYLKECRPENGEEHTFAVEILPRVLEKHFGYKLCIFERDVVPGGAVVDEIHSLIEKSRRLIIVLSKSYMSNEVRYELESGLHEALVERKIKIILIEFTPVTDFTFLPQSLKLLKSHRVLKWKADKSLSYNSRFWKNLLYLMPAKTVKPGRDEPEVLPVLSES
T1 sequence (looked up) 2: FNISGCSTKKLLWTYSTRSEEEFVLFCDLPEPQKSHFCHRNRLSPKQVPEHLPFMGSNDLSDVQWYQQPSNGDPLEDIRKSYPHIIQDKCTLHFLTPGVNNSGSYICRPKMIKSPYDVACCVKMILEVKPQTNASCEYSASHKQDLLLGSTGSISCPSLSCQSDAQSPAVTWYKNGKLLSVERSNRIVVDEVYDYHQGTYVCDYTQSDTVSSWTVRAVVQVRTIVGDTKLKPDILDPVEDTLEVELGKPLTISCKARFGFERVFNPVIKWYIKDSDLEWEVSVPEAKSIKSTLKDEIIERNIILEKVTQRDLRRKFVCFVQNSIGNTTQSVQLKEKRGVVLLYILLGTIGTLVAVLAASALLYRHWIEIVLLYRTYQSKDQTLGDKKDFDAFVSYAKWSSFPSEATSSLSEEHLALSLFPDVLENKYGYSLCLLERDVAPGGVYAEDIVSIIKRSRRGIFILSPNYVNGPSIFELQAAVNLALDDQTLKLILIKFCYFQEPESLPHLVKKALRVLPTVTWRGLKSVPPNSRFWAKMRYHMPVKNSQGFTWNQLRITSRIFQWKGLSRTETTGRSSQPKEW

B1: C317 (ligand)
chain: MAAEPVEDNSINFVAMKFIDNTLYFIAEDDENLESDRGRRVANLVGYFGKLKSKLSIIRNLNDQVLFIDQGNRPLFEDMTDSDARDNAPRTIFIISMYADSQPRGMAVAISVKCEKISTLSAENKIISFKEMNPPDNIKDTKSDIIFFQRSVPGHDNKMQFESSSYEGYFLAAEKERDLFKLILKKEDELGDRSIMFTVQNED
B2: C324 (ligand)
chain: B1 chain with L44P, V45L
B3: C325 + MMP9 (ligand)
chain: LAGGSGYFGKLKSKLSIIRNLNDQVLFIDQGNRPLFEDMTDSDARDNAPRTIFIISMYADSQPRGMAVAISVKCEKISTLSAENKIISFKEMNPPDNIKDTKSDIIFFQRSVPGHDNKMQFESSSYEGYFLAAEKERDLFKLILKKEDELGDRSIMFTVQNED
B4: C324 + MMP9 (ligand)
chain: YFGKLKSKLSIIRNLNDQVLFIDQGNRPLFEDMTDSDARDNAPRTIFIISMYADSQPRGMAVAISVKCEKISTLSAENKIISFKEMNPPDNIKDTKSDIIFFQRSVPGHDNKMQFESSSYEGYFLAAEKERDLFKLILKKEDELGDRSIMFTVQNED
B5: C322 (ligand)
chain: MAAEPVEDNSINFVAMKFIDNTLYFIAEDDENLESDSGRVANLVGGSGYFGKLKSKLSIIRNLNDQVLFIDQGNRPLFEDMTDSDARDNAPRTIFIISMYADSQPRGMAVAISVKCEKISTLSAENKIISFKEMNPPDNIKDTKSDIIFFQRSVPGHDNKMQFESSSYEGYFLAAEKERDLFKLILKKEDELGDRSIMFTVQNED
B6: C316 + Matriptase (ligand)
chain: MAAEPVEDNSINFVAMKFIDNTLYFIAEDDENLESDSGRVANLVGYFGKLKSKLSIIRNLNDQVLFIDQGNRPLFEDMTDSDARDNAPRTIFIISMYADSQPRGMAVAISVKCEKISTLSAENKIISFKEMNPPDNIKDTKSDIIFFQRSVPGHDNKMQFESSSYEGYFLAAEKERDLFKLILKKEDELGDRSIMFTVQNED
B7: C314 (ligand)
chain: MAAEPVEDNAINFVAMKFIDNTLYFIAEDDENLESDPLGYFGKLKSKLSIIRNLNDQVLFIDQGNRPLFEDMTDSDARDNAPRTIFIISMYADSQPRGMAVAISVKCEKISTLSAENKIISFKEMNPPDNIKDTKSDIIFFQRSVPGHDNKMQFESSSYEGYFLAAEKERDLFKLILKKEDELGDRSIMFTVQNED
B8: C315 (ligand)
chain: B7 chain with A10S
B9: C187 (ligand)
chain: MAAEPVEDNCINFVAMKFIDNTLYFIAEDDENLESDPLGLAGYFGKLKSKLSIIRNLNDQVLFIDQGNRPLFEDMTDSDARDNAPRTIFIISMYADSQPRGMAVAISVKCEKISTLSAENKIISFKEMNPPDNIKDTKSDIIFFQRSVPGHDNKMQFESSSYEGYFLAAEKERDLFKLILKKEDELGDRSIMFTVQNED
B10: C318 + Matriptase (ligand)
chain: B9 chain with C10S, P37S, L38G, G39R, L40V, G42N
B11: C320 (ligand)
chain: B9 chain with C10S, P37S, L38G, G39R, L40P, A41L
B12: C318 (ligand)
chain: B9 chain with C10S, P37S, L38G, G39R, L40V, G42N
B13: C319 (ligand)
chain: MAAEPVEDNSINFVAMKFIDNTLYFIAEDDENLESDRGRRVANYFGKLKSKLSIIRNLNDQVLFIDQGNRPLFEDMTDSDARDNAPRTIFIISMYADSQPRGMAVAISVKCEKISTLSAENKIISFKEMNPPDNIKDTKSDIIFFQRSVPGHDNKMQFESSSYEGYFLAAEKERDLFKLILKKEDELGDRSIMFTVQNED
B14: C321 (ligand)
chain: B13 chain with V41P, A42L, N43G
B15: C172 (ligand)
chain: YFGKLKSKLSIIRNLNDQVLFIDQGNRPLFEDMTDSDARDNAPRTIFIISMYADSQPRGMAVAISVKCEKISTLSAENKIISFKEMNPPDNIKDTKSDIIFFQRSVPGHDNKMQFESSSYEGYFLAAEKERDLFKLILKKEDELGDRSIMFTVQNESGGPGPAGMKGLPGSNIVPVLLGPKLNHVAVELGKNVRLNCSALLNEEDVIYWMFGEENGSDPNIHEEKEMRIMTPEGKWHASKVLRIENIGESNLNVLYNCTVASTGGTDTKSFILVRKADHHHHHH
B16: C323 (ligand)
chain: MAAEPVEDNSINFVAMKFIDNTLYFIAEDDENLESDRGRRVANLVGGSGYFGKLKSKLSIIRNLNDQVLFIDQGNRPLFEDMTDSDARDNAPRTIFIISMYADSQPRGMAVAISVKCEKISTLSAENKIISFKEMNPPDNIKDTKSDIIFFQRSVPGHDNKMQFESSSYEGYFLAAEKERDLFKLILKKEDELGDRSIMFTVQNED
B17: C325 (ligand)
chain: B16 chain with V41P, A42L, N43G, V45A
B18: C173 (ligand)
chain: YFGKLKSKLSIIRNLNDQVLFIDQGNRPLFEDMTDSDARDNAPRTIFIISMYADSQPRGMAVAISVKCEKISTLSAENKIISFKEMNPPDNIKDTKSDIIFFQRSVPGHDNKMQFESSSYEGYFLAAEKERDLFKLILKKEDELGDRSIMFTVQNEPLGLAGSNIVPVLLGPKLNHVAVELGKNVRLNCSALLNEEDVIYWMFGEENGSDPNIHEEKEMRIMTPEGKWHASKVLRIENIGESNLNVLYNCTVASTGGTDTKSFILVRKADHHHHHH
B19: C326 + MMP9 (ligand)
chain: LAGSGYFGKLKSKLSIIRNLNDQVLFIDQGNRPLFEDMTDSDARDNAPRTIFIISMYADSQPRGMAVAISVKCEKISTLSAENKIISFKEMNPPDNIKDTKSDIIFFQRSVPGHDNKMQFESSSYEGYFLAAEKERDLFKLILKKEDELGDRSIMFTVQNED
B20: C326 (ligand)
chain: MAAEPVEDNSINFVAMKFIDNTLYFIAEDDENLESDRGRRVANPLGLAGSGYFGKLKSKLSIIRNLNDQVLFIDQGNRPLFEDMTDSDARDNAPRTIFIISMYADSQPRGMAVAISVKCEKISTLSAENKIISFKEMNPPDNIKDTKSDIIFFQRSVPGHDNKMQFESSSYEGYFLAAEKERDLFKLILKKEDELGDRSIMFTVQNED

How the values were obtained:
Experiment in all cases: cell-based or functional assay
[1] = target: T1, IL-18 receptor (IL-18Rαβ) on cells
[2] = target: T1, IL-18 receptor (IL-18Rαβ) on cells; remark: listed apart in the source
[3] = target: T1, IL-18 receptor (IL-18Rαβ) on cells; remark: listed apart in the source

| Binder | IFNγ release NK-92 assay EC50 [1] [nM] | further results |
| --- | --- | --- |
| B1 | 526 |  |
| B2 | 51.7 |  |
| B3 | 0.0467 |  |
| B4 | 0.0022 |  |
| B5 | 205 |  |
| B6 | 366 |  |
| B7 | 255 | Hek Blue reporter assay EC50 [2]: 4000 pM |
| B8 | 252 | Hek Blue reporter assay EC50 [2]: 3360 pM |
| B9 |  | Hek Blue reporter assay EC50 [2]: 1240 pM; Fold potency loss vs C086 [3]: 29400 fold; HEK-blue EC50 [3]: 1240 nM |
| B10 | 22.1 |  |
| B11 | 158 |  |
| B12 | 21.9 |  |
| B13 | 21.3 |  |
| B14 | 112 |  |
| B15 |  | Hek Blue reporter assay EC50 [2]: 1.09 pM; Fold potency loss vs C086 [3]: 26 fold; HEK-blue EC50 [3]: 1.09 nM |
| B16 | 102 |  |
| B17 | 201 |  |
| B18 |  | Hek Blue reporter assay EC50 [2]: 0.13 pM |
| B19 | 0.0514 |  |
| B20 | 217 |  |
